Results from the supplement of paper PMC9112550, “Optimization of the antimicrobial peptide Bac7 by deep mutational scanning” (BMC Biology, 2022).

Test system: Escherichia coli TOP10
Test: shrunken log2 fold change of peptide-encoding DNA abundance (4.5 h post-induction vs induction); higher = less antimicrobial activity (less host growth inhibition)
Settings: time post-induction: 4.5 h; library: site-saturation at positions 5, 18, 19, 20
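Note: peptides expressed intracellularly from a pBAD plasmid library in pooled LB shake-flask culture, induced with 0.3% L-arabinose, DNA abundance read by NGS, three biological replicates, DESeq2 with apeglm shrinkage.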

Sequence	shrunken log2 fold change
RRIRSRPPRLPRPRPRPEISPRP	-0.094
RRIRERPPRLPRPRPRPHVHPRP	-0.315
RRIRKRPPRLPRPRPRPFEEPRP	0.148
RRIRDRPPRLPRPRPRPSCLPRP	-0.0009
RRIRTRPPRLPRPRPRPQCHPRP	-0.0436
RRIRNRPPRLPRPRPRPLIGPRP	-0.0791
RRIRQRPPRLPRPRPRPFPSPRP	-0.0654
RRIRRRPPRLPRPRPRPYDDPRP	-0.577
RRIRRRPPRLPRPRPRPVDWPRP	0.577
RRIRQRPPRLPRPRPRPLTMPRP	0.00947
RRIRHRPPRLPRPRPRPRDGPRP	0.84
RRIRNRPPRLPRPRPRPRIAPRP	0.069
RRIRERPPRLPRPRPRPIMMPRP	-0.689
RRIRFRPPRLPRPRPRPSGGPRP	-0.103
RRIRKRPPRLPRPRPRPERMPRP	0.0818
RRIRSRPPRLPRPRPRPMQEPRP	0.169
RRIRKRPPRLPRPRPRPVDMPRP	-0.122
RRIRWRPPRLPRPRPRPSYYPRP	-0.292
RRIRKRPPRLPRPRPRPMYPPRP	0.00349
RRIRQRPPRLPRPRPRPNLSPRP	-0.258
RRIRTRPPRLPRPRPRPPGMPRP	0.424
RRIRGRPPRLPRPRPRPRSNPRP	0.363

Sequence	shrunken log2 fold change
RRIRHRPPRLPRPRPRPFYPPRP	-0.623
RRIRVRPPRLPRPRPRPHMGPRP	-0.302
RRIRHRPPRLPRPRPRPREQPRP	0.628
RRIRDRPPRLPRPRPRPAAQPRP	1.65
RRIRPRPPRLPRPRPRPQSMPRP	-0.609
RRIRRRPPRLPRPRPRPYCPPRP	-0.187
RRIRQRPPRLPRPRPRPRPPPRP	1.08
RRIRFRPPRLPRPRPRPIGDPRP	-0.033
RRIRRRPPRLPRPRPRPDNVPRP	-0.211
RRIRPRPPRLPRPRPRPYEGPRP	-0.0988
RRIRVRPPRLPRPRPRPSDEPRP	-0.463
RRIRRRPPRLPRPRPRPYRYPRP	0.0464
RRIRIRPPRLPRPRPRPGSKPRP	-0.0906
RRIRYRPPRLPRPRPRPNKRPRP	-0.75
RRIRIRPPRLPRPRPRPMCIPRP	-0.232
RRIRLRPPRLPRPRPRPINYPRP	-0.857
RRIRVRPPRLPRPRPRPMPPPRP	0.44
RRIRFRPPRLPRPRPRPYTWPRP	-1.05
RRIRIRPPRLPRPRPRPEHTPRP	-0.464
RRIRERPPRLPRPRPRPNHGPRP	-0.348
RRIRYRPPRLPRPRPRPFNNPRP	2.81
RRIRHRPPRLPRPRPRPAQTPRP	-0.1

Sequence	shrunken log2 fold change
RRIRQRPPRLPRPRPRPWFLPRP	-0.0618
RRIRARPPRLPRPRPRPHTSPRP	-0.218
RRIRNRPPRLPRPRPRPPCSPRP	-0.327
RRIRERPPRLPRPRPRPETRPRP	-0.0227
RRIRPRPPRLPRPRPRPKAMPRP	0.000243
RRIRVRPPRLPRPRPRPGQKPRP	0.00253
RRIRRRPPRLPRPRPRPKNFPRP	0.151
RRIRVRPPRLPRPRPRPDKNPRP	-0.12
RRIRSRPPRLPRPRPRPEVWPRP	0.779
RRIRERPPRLPRPRPRPQSNPRP	-0.172
RRIRCRPPRLPRPRPRPYQFPRP	-0.0218
RRIRARPPRLPRPRPRPHYSPRP	0.141
RRIRPRPPRLPRPRPRPNCWPRP	1.74
RRIRDRPPRLPRPRPRPNYHPRP	-0.359
RRIRNRPPRLPRPRPRPLASPRP	-0.196
RRIRNRPPRLPRPRPRPGHSPRP	-0.152
RRIRWRPPRLPRPRPRPQWVPRP	0.0902
RRIRIRPPRLPRPRPRPLEMPRP	-0.373
RRIRQRPPRLPRPRPRPQLHPRP	-0.237
RRIRCRPPRLPRPRPRPRRIPRP	-0.246
RRIRGRPPRLPRPRPRPHTRPRP	0.559
RRIRRRPPRLPRPRPRPEMFPRP	-0.151

Sequence	shrunken log2 fold change
RRIRVRPPRLPRPRPRPMPYPRP	0.122
RRIRDRPPRLPRPRPRPWQYPRP	-0.482
RRIRDRPPRLPRPRPRPQLMPRP	0.419
RRIRERPPRLPRPRPRPMNVPRP	-0.00243
RRIRYRPPRLPRPRPRPDYEPRP	-0.105
RRIRDRPPRLPRPRPRPRQPPRP	0.252
RRIRIRPPRLPRPRPRPCFMPRP	-0.378
RRIRERPPRLPRPRPRPLYIPRP	-0.668
RRIRSRPPRLPRPRPRPKYCPRP	-0.263
RRIRARPPRLPRPRPRPFYVPRP	-0.383
RRIRTRPPRLPRPRPRPDDVPRP	-0.102
RRIRKRPPRLPRPRPRPLYMPRP	-0.514
RRIRLRPPRLPRPRPRPRKNPRP	0.0496
RRIRFRPPRLPRPRPRPPVVPRP	0.159
RRIRYRPPRLPRPRPRPHVNPRP	-0.0934
RRIRERPPRLPRPRPRPNGGPRP	-0.0469
RRIRDRPPRLPRPRPRPTEWPRP	0.531
RRIRERPPRLPRPRPRPPHLPRP	-0.0668
RRIRARPPRLPRPRPRPYCPPRP	-0.585
RRIRIRPPRLPRPRPRPEFWPRP	-0.0113
RRIRGRPPRLPRPRPRPETRPRP	0.109
RRIRTRPPRLPRPRPRPEYLPRP	-0.0156

Sequence	shrunken log2 fold change
RRIRERPPRLPRPRPRPAYSPRP	-0.0646
RRIRNRPPRLPRPRPRPSPNPRP	-0.552
RRIRARPPRLPRPRPRPHYYPRP	-0.146
RRIRIRPPRLPRPRPRPPATPRP	0.177
RRIRRRPPRLPRPRPRPNEKPRP	-0.023
RRIRFRPPRLPRPRPRPQSPPRP	-0.13
RRIRLRPPRLPRPRPRPCKCPRP	-0.0362
RRIRGRPPRLPRPRPRPWGQPRP	0.204
RRIRVRPPRLPRPRPRPMNPPRP	-0.421
RRIRFRPPRLPRPRPRPTHWPRP	0.44
RRIRHRPPRLPRPRPRPILYPRP	-0.123
RRIRIRPPRLPRPRPRPLFVPRP	-0.642
RRIRWRPPRLPRPRPRPENMPRP	-0.185
RRIRERPPRLPRPRPRPSDDPRP	-0.0902
RRIRMRPPRLPRPRPRPSECPRP	0.0809
RRIRDRPPRLPRPRPRPKNNPRP	-0.556
RRIRPRPPRLPRPRPRPYSSPRP	-0.282
RRIRPRPPRLPRPRPRPLFDPRP	0.0231
RRIRHRPPRLPRPRPRPFEFPRP	-0.0195
RRIRMRPPRLPRPRPRPNIYPRP	-0.124
RRIRIRPPRLPRPRPRPGPIPRP	-0.329
